Where no end group is shown, it is not given here. [ ]: non-standard residue; d: D form. pS = N[C@@H](COP(=O)(O)O)C(=O)O
B1: MBP-tagged TTP-CTD with Asn320 mutated to alanine (domain or fragment, human, UniProt P26651 174-326, looked up)
chain: APGHPPVLRQSISFSGLPSGRRTSPPPPGLAGPSLSSSSFSPSSSPPPPGDLPLSPSAFSAAPGTPLARRDPTPVCCPSCRRATPISVWGPLGGLVRTPSVQSLGSDPDEYASSGSSLGGSDSPVFEAGVFAPPQPVAAPRRLPIFARISVSE
B2: GST-tagged CNOT1(800–1015) (domain or fragment, human, UniProt A5YKK6-2 800-1015, looked up)
chain: NNDPFVQRKLGTSGLNQPTFQQTDLSQVWPEANQHFSKEIDDEANSYFQRIYNHPPHPTMSVDEVLEMLQRFKDSTIKREREVFNCMLRNLFEEYRFFPQYPDKELHITACLFGGIIEKGLVTYMALGLALRYVLEALRKPFGSKMYYFGIAALDRFKNRLKDYPQYCQHLASISHFMQFPHHLQEYIEYGQQSRDPPVKMQGSITTPGSIALAQA
B3: MBP-fused full-length human Tristetraprolin (TTP) (natural protein, UniProt P26651 1-326, looked up)
chain: MDLTAIYESLLSLSPDVPVPSDHGGTESSPGWGSSGPWSLSPSDSSPSGVTSRLPGRSTSLVEGRSCGWVPPPPGFAPLAPRLGPELSPSPTSPTATSTTPSRYKTELCRTFSESGRCRYGAKCQFAHGLGELRQANRHPKYKTELCHKFYLQGRCPYGSRCHFIHNPSEDLAAPGHPPVLRQSISFSGLPSGRRTSPPPPGLAGPSLSSSSFSPSSSPPPPGDLPLSPSAFSAAPGTPLARRDPTPVCCPSCRRATPISVWGPLGGLVRTPSVQSLGSDPDEYASSGSSLGGSDSPVFEAGVFAPPQPVAAPRRLPIFNRISVSE

Columns and labels:
[1] = target: CNOT1(800–999), TTP-interacting fragment of CNOT1 (human, UniProt A5YKK6-2 800-999); assay: ITC
[2] = target: B2; assay: pull-down
[3] = target: B3; assay: pull-down
[4] = target: T1, MBP-TTP lacking amino acids 179–192 (TTP-MUT1) (human, UniProt P26651 1-326, lacking amino acids 179–192); assay: pull-down
T1 sequence (looked up): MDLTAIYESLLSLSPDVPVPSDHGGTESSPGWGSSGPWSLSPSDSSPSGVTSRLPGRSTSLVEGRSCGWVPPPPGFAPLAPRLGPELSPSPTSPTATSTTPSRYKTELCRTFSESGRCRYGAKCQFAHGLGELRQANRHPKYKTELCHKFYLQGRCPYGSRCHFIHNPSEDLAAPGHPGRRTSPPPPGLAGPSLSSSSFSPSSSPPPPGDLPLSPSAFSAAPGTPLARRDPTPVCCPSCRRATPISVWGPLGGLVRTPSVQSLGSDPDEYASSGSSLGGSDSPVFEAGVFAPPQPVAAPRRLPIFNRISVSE

[5] = target: GST-fused CNOT1 fragment, residues 727–1266 (human, UniProt A5YKK6-2 727-1266); assay: pull-down

APRRLPIFNRI[pS]VSE [TTP-CIM peptide 312–326 containing phospho-Ser323]
Kd [1]: ~0.625 mM

B1
binding result [2]: binds

APRRLPIANRISVSE [TTP peptide 312–326, Phe319Ala mutant]
Kd [1]: ~7 mM

B2
binding result [3]: binds | binding result [4]: binds

B3
binding result [5]: binds

From PMC4811204 (Nature structural & molecular biology, 2013)
